Laboratory results taken from patent publication US20120065379A1 (Chugai, published 2012).

Key:
[1] = target: T1, Soluble human FcRn (complex of FcRn and β2-microglobulin) (human, UniProt P55899 24-290; P61769 21-119); assay: SPR (Biacore 3000), pH 6.0; antibody captured, human FcRn as analyte; steady state affinity
T1 construct: Co-expressed in HEK293H cells and purified from the culture supernatant; also called hFcRn
Experimental: (§1) Human FcRn was prepared according to the method described in Reference Example 2. The binding to human FcRn was assessed using Biacore 3000. An antibody was bound to Protein L or rabbit anti-human IgG Kappa chain antibody immobilized onto a sensor chip, human FcRn was added as an analyte for interaction with the antibody, and the affinity (KD) was calculated from the amount of bound human FcRn. Specifically, Protein L or rabbit anti-human IgG Kappa chain antibody was immobilized onto sensor chip CMS (BIACORE) by the amine coupling method using 50 mM Sodium-phosphate buffer (pH 6.0) containing 150 mM NaCl as the running buffer. Then, IL6R H0-IgG1/L0-k0 and IL6R H0-M82/L0-k0 was each diluted with a running buffer containing 0.02% Tween20, and injected to be bound to the chip. Human FcRn was then injected and the binding of the human FcRn to antibody was assessed.
(§2) The affinity was computed using BIAevaluation Software. The obtained sensorgram was used to calculate the amount of hFcRn bound to the antibody immediately before the end of human FcRn injection. The affinity of the antibody for human FcRn was calculated by fitting with the steady state affinity method.

[2] = target: T1, Soluble human FcRn (complex of FcRn and …); assay: SPR (Biacore 3000), pH 6.0; antibody captured on Protein L or rabbit anti-human IgG Kappa chain antibody, human FcRn as analyte; steady state affinity fit
Experimental: as §1, §2

fold increase of binding compared to IL6R H0-IgG1/L0-k0 [1]: ~1.34 times
Kd [2]: 1210 nM
B1: IL6R H0-M82/L0-k0 (antibody, IgG2)
heavy: QVQLQESGPGLVRPSQTLSLTCTVSGYSITSDHAWSWVRQPPGRGLEWIGYISYSGITTYNPSLKSRVTMLRDTSKNQFSLRLSSVTAADTAVYYCARSLARTTAMDYWGQGSLVTVSSASTKGPSVFPLAPCSRSTSESTAALGCLVKDYFPEPVTVSWNSGALTSGVHTFPAVLQSSGLYSLSSVVTVPSSNFGTQTYTCNVDHKPSNTKVDKTVERKSSVECPPCPAPPVAGPSVFLFPPKPKDTLMISRTPEVTCVVVDVSQEDPEVQFNWYVDGVEVHNAKTKPREEQFNSTFRVVSVLTVVHQDWLNGKEYKCKVSNKGLPAPIEKTISKTKGQPREPQVYTLPPSQEEMTKNQVSLTCLVKGFYPSDIAVEWESNGQPENNYKTTPPMLDSDGSFFLYSKLTVDKSRWQEGNVFSCSVMHEALHNHYTQKSLSLSP
light: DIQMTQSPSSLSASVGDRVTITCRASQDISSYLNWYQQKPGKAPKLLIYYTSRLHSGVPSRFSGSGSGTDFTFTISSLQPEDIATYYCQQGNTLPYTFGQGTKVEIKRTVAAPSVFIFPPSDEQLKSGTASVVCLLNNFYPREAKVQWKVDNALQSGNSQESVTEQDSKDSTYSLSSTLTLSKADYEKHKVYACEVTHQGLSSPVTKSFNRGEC
notes: Same variable regions as m1; The M82 constant region is an IgG2 variant with C219S, C220S, H268Q, R355Q and Q419E (EU numbering) and with Gly446 and Lys447 deleted; also called M82-k0
